The values that follow are results of earlier work, collected in publication PMC8044989.

In the data set the target is RXFP3 (Homo sapiens) (UniProt Q9NSD7).
Sequence of UniProt Q9NSD7 (Q9NSD7 whole entry): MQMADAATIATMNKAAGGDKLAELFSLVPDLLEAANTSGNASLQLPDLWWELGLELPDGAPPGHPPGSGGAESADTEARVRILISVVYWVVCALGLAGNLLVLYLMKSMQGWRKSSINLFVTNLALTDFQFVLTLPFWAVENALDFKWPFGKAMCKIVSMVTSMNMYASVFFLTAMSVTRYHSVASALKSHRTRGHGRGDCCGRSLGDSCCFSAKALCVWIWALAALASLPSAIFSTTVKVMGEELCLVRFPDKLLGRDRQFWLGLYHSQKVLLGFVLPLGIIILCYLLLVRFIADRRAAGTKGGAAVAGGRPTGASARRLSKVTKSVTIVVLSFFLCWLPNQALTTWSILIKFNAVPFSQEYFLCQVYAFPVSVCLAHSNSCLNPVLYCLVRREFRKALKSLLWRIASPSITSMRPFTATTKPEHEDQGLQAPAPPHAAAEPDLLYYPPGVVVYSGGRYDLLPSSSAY

For relaxin-3 (from UniProt Q8WXF3), the Kd is 0.3 nM.
